Source: patent publication US20240148892A1 (DUALITY BIOLOGICS SUZHOU, published 2024)

Target: T1, Human B7-H3(4Ig), His Tag (human, UniProt Q5ZPR3 29-461)
T1 construct: Bought protein; also called recombinant human B7H3 antigen; human B7-H3 protein; not shown: His tag
T1 sequence (looked up): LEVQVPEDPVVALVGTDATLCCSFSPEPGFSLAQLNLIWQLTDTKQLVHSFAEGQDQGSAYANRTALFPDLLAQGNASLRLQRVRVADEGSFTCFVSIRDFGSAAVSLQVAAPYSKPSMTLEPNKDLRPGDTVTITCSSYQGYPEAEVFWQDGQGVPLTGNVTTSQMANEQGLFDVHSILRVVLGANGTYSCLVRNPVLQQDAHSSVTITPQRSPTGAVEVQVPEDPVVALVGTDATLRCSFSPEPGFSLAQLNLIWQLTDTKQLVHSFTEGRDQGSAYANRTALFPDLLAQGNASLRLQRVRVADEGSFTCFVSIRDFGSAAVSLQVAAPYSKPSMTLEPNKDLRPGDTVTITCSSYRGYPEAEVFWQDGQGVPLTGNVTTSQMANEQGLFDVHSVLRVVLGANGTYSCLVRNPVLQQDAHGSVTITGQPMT
Assay: ELISA, plate coated with 2 µg/mL recombinant human B7-H3 (4Ig) His, serially diluted antibody, HRP anti-human secondary antibody, OD450
Description: A 96-well ELISA plate was coated with 2 μg/mL recombinant human B7H3 antigen (see the table above) at 30 μL/well and kept at 4° C. overnight. The following day, the well plate was washed 3 times with PBST and then blocked with 5% skim milk for 2 h. […] The plate was then washed 3 times with PBST, and an HRP-labeled anti-human secondary antibody diluted in a 1:5000 ratio was then added at 100 μL/well and incubated for 1 h. After the incubation was complete, the plate was washed six times with PBST, and TMB (SurModics, TMBS-1000-01) was added for color development. Based on the results of the color development, the reaction was stopped by adding 2M HCl, and the plate was read by a microplate reader (Molecular Devices, SpecterMax 190) at OD450.

B1: W301088-1.145.16-z3-p1-uIgG1KV320 (antibody, V domains shown)
VH: QVQLQESGPGLVKPSQTLSLTCTVTDYSITGDYAWNWIRQHPGKGLEWIGYISYSGSTSYNPSLQSRVTISRDTSKNQFSLKLSSVTAADTAVYFCARSLGRRWYFVVWGQGTTVTVSS
VL: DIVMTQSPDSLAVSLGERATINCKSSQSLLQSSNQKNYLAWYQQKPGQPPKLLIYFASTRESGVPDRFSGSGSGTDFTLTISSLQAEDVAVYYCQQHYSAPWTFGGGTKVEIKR
notes: Humanized, PTM-removed (VL N027dQ) human IgG1 LALA kappa antibody; also called WBP301088; W301088-z3-p1
  EC50 (read off the curve): ~0.2 µg/mL
